Test results taken from article PMC5278347, “Identification and Characterization of a Plastidic Adenine Nucleotide Uniporter (OsBT1-3) Required for Chloroplast Development in the Early Leaf Stage of Rice” (Scientific Reports, 2017).

T1: OsBT1-3 (Oryza sativa, UniProt A0A0P0WYD6)
T1 construct: gene Os06g0602700; E. coli Rosetta(DE3)pLysS, intact cells; antibody peptide VPGTEAESVNEEEVVDGK
T1 sequence (A0A0P0WYD6 1-423): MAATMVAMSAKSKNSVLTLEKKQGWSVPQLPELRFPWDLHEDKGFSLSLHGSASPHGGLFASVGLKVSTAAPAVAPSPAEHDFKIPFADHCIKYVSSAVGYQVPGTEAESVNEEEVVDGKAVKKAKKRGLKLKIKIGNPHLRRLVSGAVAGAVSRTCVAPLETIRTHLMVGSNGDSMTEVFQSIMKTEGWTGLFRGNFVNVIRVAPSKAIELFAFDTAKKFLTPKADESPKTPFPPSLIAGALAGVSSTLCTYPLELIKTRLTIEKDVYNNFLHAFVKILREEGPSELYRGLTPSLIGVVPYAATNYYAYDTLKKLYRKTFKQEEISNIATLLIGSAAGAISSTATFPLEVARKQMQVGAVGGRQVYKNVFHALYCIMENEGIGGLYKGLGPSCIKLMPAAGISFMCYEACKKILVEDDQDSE

B1: OsBT1-3 (Oryza sativa Japonica Group) (protein)
chain: T1 sequence (A0A0P0WYD6 1-423)
notes: E. coli Rosetta(DE3)pLysS, intact cells; antibody peptide VPGTEAESVNEEEVVDGK

Key:
[1] = target: T1, OsBT1-3; experiment: inhibition of [α^32P]-ATP uptake into E. coli cells; format: cell-based; details: 2000 µM; 2 mM PLP; lysozyme-treated cells; ATP printed as 50 mM (probably μM)
[2] = substrate: Nc1ncnc2c1ncn2[C@@H]1O[C@H](COP(=O)(O)OP(=O)(O)OP(=O)(O)O)[C@@H](O)[C@H]1O; experiment: cells, lysate or membranes; format: cell-based, Oryza sativa; details: labelled compound ([α^32P]-ATP); 0 to 900 μM; IPTG-induced cells, non-induced background subtracted
[3] = substrate: Nc1ncnc2c1ncn2[C@@H]1O[C@H](COP(=O)(O)OP(=O)(O)O)[C@@H](O)[C@H]1O; experiment: cells, lysate or membranes; format: cell-based, Oryza sativa; details: labelled compound ([α^32P]-ADP); 0 to 900 μM; IPTG-induced cells, non-induced background subtracted
[4] = substrate: Nc1ncnc2c1ncn2[C@@H]1O[C@H](COP(=O)(O)O)[C@@H](O)[C@H]1O; experiment: cells, lysate or membranes; format: cell-based, Oryza sativa; details: labelled compound ([^14C]-AMP); 0 to 900 μM; IPTG-induced cells, non-induced background subtracted

Molecule | Transport Rate (%) [1] [%] | Km [2] [µM] | Km [3] [µM] | Km [4] [µM]
Cc1ncc(COP(=O)(O)O)c(C=O)c1O [PLP] | 27.4 ± 1.9 |  |  | 
B1 |  | 83.5 ± 2.74 | 101.7 ± 7.62 | 106.1 ± 3.45
